Target: Hepatitis B patients' plasma-derived HBsAg particles (HBV surface antigen, subviral particle of HBV)
Assay: AlphaScreen
Settings: parent: est. 1.3; read off a plot

With “Myr47 lipopeptide (HBV pre-S1 domain, myristoylated 2–48 peptide), biotinylated Ala11–15” the response was 1.4 RLU (×10^6).
